Results on one molecule are retold here after paper PMC6803640, “Oligomeric state, hydrodynamic properties and target recognition of human Calcium and Integrin Binding protein 2 (CIB2)” (Scientific Reports, 2019).

Series [1] in a line: Analytical size exclusion chromatography. Format: physicochemical. Conditions: analytical SEC, 20 mM HEPES pH 7.4, 150 mM KCl, 1 mM DTT, 1 mM Mg^2+, 2 mM Ca^2+; CIB2 ∼70 µM (A2 band), Rec ∼80 µM, CaM ∼110 µM. As for the experimental part:
The molecular weight (MW) of the proteins was determined before and after DSBU-modification as previously described[7] in the same buffer (20 mM HEPES, pH 7.5, 1 mM DTT, 1 mM Mg^2+ and 2 mM Ca^2+). […] Standard calibration curve for MW estimation was the same used in our previous study.
On the technique in general: In gel filtration, larger molecules generally elute earlier.

A further series is described as follows: Dynamic light scattering. In kind it is physicochemical. Particulars: 37 °C, fractions eluted from SEC (CIB2 A2 band), mean ± SEM; n = 15 (CIB2), 18 (Rec), 30 (CaM); 1.8 µM CIB2, 11 µM Rec, 7.4 µM CaM. The procedure: DLS measurements were performed using Zetasizer Nano-S (Malvern Instruments) at 37 °C by setting the same parameters for hydrodynamic diameter estimation as in ref.[26]. The estimation was based on 15–30 measurements, each consisting of at least 13 repetitions; data in Table 1 are reported as mean ± standard error of mean (SEM). DLS samples for each protein are the same collected in the Analytical Size Exclusion Chromatography.
His-tagged proteins, and then blocked via amine coupling as explained above. Preparation of the […]
approximately 2250 RU of CIB2 immobilized. In binding experiments, peptide concentration was varied in the 230 nM- 30 μM range for both α7B_M, and α7B_C, and experiments were repeated 4 times, both with the HBS buffer described above (containing 1 mM MgCl2) and with further addition of 2 mM CaCl2. Flow rate was set to 20 μl min−1 in all binding experiments, and the dissociation […]
Figure S1: DLS measurements of the SEC collected peaks. CIB2 band A2 (A), Rec (B) and CaM (C). Each data set consisted of 15-30 measurements (grey lines), with 13-15 repetitions each. Colored lines are referred to the average distribution. Temperature was set to 37°C and samples were equilibrated for 2 min before measurements.
Figure S2: Time-resolved proteolysis experiments. […]

For the next series, the system named is Rec. Conditions: presence of Ca^2+; cited from earlier work. An excerpt: Solvation of their large hydrophobic surfaces might influence the intera ...

B1: Rec: bovine Rec, Ca^2+-sensor protein (protein, UniProt P21457 2-202, looked up)
Recoverin: GNSKSGALSKEILEELQLNTKFTEEELSSWYQSFLKECPSGRITRQEFQTIYSKFFPEADPKAYAQHVFRSFDANSDGTLDFKEYVIALHMTSAGKTNQKLEWAFSLYDVDGNGTISKNEVLEIVTAIFKMISPEDTKHLPEDENTPEKRAEKIWGFFGKKDDDKLTEKEFIEGTLANKEILRLIQFEPQKVKEKLKEKKL
For B1, in series [1], the “MW^SEC” value is listed as 33.5 kDa. In the series “Dynamic light scattering”, the “DLS Ø hydrodynamic diameter” value was 5.0 ± 0.1 nm. In the series with Rec, the “concentration above which dimers were isolated” value is on record as “above 100 μM”.
